From patent US6280955 come the findings set out here.

The test has as its target IL-1RI (cell surface IL-1 receptor) (Homo sapiens (Human)) (UniProt P14778).

Substance “epitope-tagged IL-1RAcP (amino-terminal FLAG fusion, full length, transiently expressed from pFlag-CMV-1) (receptor)” yielded an NF-κB-dependent luciferase reporter gene in 293 cells, ligand-independent of 20 fold.
